Target: trypsin
Assay: Inhibition constant Ki, steady-state release of p-nitroaniline, trypsin
Format: biochemical
Conditions: only inhibitor concentration varied
Method: The determination of the inhibition constants Ki is carried out according to N. Braun et al. [Biol. Chem. Hoppe-Seyler 368, 299-308 (1987)] by measuring the steady-state reaction rate of the release of p-nitroaniline from proteinase-inhibitor substrate mixtures. Only the inhibitor concentration is varied. Since the curve OD405 vs. time was linear, the release of p-nitroaniline is entered at 10 to 20 minutes. Ki can be determined from the various slopes. The proteinases used are human leukocyte elastase (HLE), chymotrypsin and trypsin.

B1: Eglin C (protein, UniProt P01051 1-70, looked up)
Eglin C: TEFGSELKSFPEVVGKTVDQAREYFTLHYPQYDVYFLPEGSPVTLDLRYNRVRVFYNPGTNVVNHVPHVG
  Inhibition constants, trypsin Ki (M): no inhibition

— US5180667A, “Genes encoding eglin C mutants” (Ciba-Geigy Corporation, priority 1988, dated 1993)
